Consider three sequences from the supplement of paper PMC6379048.

What all share (assay): EC50 of free RNA motif oligo competing protein binding to immobilised probe
One series addresses CSNK2A1 (UniProt P68400). Summed up:
(§1)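 Free RNA oligos (0 nM to 30 μM) competed for 1 h at 4°C in HEK293-FT lysate (2.5 mg protein/well) before a 30 min, 4°C pulldown with the same oligos on NHS-Sepharose beads. Bound proteins were quantified by label-free LC-MS/MS and normalised to the control. Kd was found by multiplying EC50, from a four-parameter log-logistic fit, by a protein-dependent depletion factor.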

A further series addresses T1, SF3B3 (UniProt Q15393).
T1 sequence: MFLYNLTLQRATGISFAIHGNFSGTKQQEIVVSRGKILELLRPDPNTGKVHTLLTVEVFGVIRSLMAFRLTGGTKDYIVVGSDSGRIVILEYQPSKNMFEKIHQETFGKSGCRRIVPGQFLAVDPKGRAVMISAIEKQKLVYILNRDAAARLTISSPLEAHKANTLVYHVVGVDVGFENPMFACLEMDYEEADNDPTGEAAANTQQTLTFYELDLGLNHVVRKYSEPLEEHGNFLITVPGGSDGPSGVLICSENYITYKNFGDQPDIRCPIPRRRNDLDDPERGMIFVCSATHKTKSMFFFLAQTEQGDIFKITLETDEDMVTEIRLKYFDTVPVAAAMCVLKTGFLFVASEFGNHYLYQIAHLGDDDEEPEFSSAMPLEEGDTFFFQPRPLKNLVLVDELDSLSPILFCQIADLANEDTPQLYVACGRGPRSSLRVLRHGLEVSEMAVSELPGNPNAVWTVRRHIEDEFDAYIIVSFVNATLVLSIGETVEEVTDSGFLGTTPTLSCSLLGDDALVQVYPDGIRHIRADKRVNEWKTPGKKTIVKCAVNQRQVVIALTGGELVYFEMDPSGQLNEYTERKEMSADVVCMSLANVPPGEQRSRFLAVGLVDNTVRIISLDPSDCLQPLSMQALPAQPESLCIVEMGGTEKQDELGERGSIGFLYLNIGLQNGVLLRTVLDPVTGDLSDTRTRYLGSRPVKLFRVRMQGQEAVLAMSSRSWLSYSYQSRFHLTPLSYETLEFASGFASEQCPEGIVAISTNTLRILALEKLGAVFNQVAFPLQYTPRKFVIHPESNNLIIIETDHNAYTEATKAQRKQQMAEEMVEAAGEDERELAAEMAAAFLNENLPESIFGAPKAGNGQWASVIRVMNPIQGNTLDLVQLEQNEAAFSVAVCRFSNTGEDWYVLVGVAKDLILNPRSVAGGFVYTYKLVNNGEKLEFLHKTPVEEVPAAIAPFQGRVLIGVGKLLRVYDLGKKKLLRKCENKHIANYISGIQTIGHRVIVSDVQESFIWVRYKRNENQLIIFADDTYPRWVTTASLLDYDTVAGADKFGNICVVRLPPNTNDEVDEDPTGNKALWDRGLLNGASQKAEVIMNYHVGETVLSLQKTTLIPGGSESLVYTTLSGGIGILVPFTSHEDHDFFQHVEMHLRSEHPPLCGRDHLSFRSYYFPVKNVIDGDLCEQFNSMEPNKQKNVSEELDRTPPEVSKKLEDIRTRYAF
Summed up:
as §1

In the next series the target is RPS18 (UniProt P62269). In a few lines: as §1
The target in another series is RPS25 (UniProt P62851). Summed up:
as §1

In the next series the target is MRPS18A (UniProt Q9NVS2). In a few lines: as §1
In a further series the target is IGF2BP3 (UniProt O00425). Summed up:
as §1

The target of another series is T2, PRPF31 (UniProt Q8WWY3).
T2 sequence: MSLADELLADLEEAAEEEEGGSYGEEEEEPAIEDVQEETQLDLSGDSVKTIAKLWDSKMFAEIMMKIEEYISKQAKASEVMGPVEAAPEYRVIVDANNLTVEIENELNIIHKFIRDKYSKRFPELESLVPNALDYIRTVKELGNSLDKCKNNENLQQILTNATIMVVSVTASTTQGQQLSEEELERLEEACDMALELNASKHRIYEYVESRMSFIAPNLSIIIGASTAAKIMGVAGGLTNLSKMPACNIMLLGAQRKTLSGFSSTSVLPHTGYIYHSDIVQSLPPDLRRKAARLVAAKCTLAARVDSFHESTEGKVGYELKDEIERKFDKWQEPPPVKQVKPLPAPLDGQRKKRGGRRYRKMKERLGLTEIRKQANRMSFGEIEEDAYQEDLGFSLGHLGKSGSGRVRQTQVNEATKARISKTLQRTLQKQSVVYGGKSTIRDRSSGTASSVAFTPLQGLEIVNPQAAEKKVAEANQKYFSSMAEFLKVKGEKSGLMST
In a few lines: as §1

A further series addresses T3, RBM38 (UniProt Q9H0Z9).
T3 sequence: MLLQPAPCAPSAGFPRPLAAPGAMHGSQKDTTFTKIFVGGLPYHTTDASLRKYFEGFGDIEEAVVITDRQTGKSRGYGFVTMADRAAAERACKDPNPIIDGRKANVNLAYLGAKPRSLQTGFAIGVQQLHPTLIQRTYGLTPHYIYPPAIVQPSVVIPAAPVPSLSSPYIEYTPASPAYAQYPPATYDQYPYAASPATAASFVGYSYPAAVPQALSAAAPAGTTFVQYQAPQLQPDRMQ
In a few lines:
as §1

Sequence of IGF2BP3 (O00425 whole entry): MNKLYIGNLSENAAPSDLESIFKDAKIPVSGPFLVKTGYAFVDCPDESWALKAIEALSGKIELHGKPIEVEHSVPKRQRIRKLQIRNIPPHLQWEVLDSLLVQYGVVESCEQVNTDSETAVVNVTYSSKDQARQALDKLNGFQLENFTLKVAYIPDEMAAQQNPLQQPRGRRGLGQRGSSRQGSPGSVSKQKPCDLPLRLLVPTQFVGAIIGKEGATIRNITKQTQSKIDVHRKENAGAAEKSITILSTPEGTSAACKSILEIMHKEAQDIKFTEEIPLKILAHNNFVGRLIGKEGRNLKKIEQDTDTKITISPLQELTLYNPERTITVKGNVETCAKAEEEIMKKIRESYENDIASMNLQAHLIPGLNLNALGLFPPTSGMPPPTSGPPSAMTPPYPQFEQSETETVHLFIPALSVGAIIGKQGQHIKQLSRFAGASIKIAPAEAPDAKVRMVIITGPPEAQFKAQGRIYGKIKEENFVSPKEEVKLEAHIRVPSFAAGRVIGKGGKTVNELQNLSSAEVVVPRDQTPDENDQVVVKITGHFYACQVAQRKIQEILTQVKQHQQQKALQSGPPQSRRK
Sequence of CSNK2A1 (P68400 whole entry, looked up): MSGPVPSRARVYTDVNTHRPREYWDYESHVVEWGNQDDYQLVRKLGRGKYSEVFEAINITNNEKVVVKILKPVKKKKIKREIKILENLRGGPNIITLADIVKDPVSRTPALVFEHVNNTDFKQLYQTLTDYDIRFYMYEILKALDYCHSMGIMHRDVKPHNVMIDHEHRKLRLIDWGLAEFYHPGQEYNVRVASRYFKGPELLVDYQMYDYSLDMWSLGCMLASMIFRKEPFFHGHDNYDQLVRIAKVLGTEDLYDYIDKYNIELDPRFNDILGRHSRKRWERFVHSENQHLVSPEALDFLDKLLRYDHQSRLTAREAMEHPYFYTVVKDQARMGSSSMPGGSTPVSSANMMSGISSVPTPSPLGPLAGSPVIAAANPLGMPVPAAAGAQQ

Turning to AAUAAA, the results for the EC50 with CSNK2A1 and in the series with SF3B3 were 124 nM and 4880 nM, respectively.
Regarding CUGUCCU, the EC50 is 89.4 nM in the series with RPS18, 72.5 nM with RPS25, 102 nM in the series with MRPS18A and 3770 nM with IGF2BP3.
On to UAUUUAU, for which the figures for the EC50 in the series with PRPF31 and with RBM38 were 5840 nM and 2910 nM, respectively.

As usually defined, the EC50 is the midpoint of the concentration-response curve. High values mean weaker potency, low ones greater potency.
